The results in this text go back to the DeepSol protein solubility set.

The nature of the data set: soluble on expression in E. coli; label from the status in PepcDB or PDB records.
For “GSLSLIRKKGFYKQDVNKTAWELPKTYVSPTHVGSGAYGSVCSAIDKRSGEKVAIKKLSRPFQSEIFAKRAYRELLLLKHMQHENVIGLLDVFTPASSLRNFYDFYLVMPFMQTDLQKIMGMEFSEEKIQYLVYQMLKGLKYIHSAGVVHRDLKPGNLAVNEDCELKILDFGLARHADAEMTGYVVTRWYRAPEVILSWMHYNQTVDIWSVGCIMAEMLTGKTLFKGKDYLDQLTQILKVTGVPGTEFVQKLNDKAAKSYIQSLPQTPRKDFTQLFPRASPQAADLLEKMLELDVDKRLTAAQALTHPFFEPFRDPEEETEAQQPFDDSLEHEKLTVDEWKQHIYKEIVNFSPIARKDSRV”, the “soluble on expression in E. coli” value is on record as “soluble”.
On to “GSMENTDVFLGLHDFLERMRKPSAGDFVKSIKSFIVSFSNNAPDPEKDCAMVQEFFSKMEAAFRAHPLWSGCSEEELDSAGDGLEKYVMTKLFTRVFASNTEEVIADEKLFQKMSLVQQFISPENLDIQPTFQNESSWLLAQKELQKINMYKAPRDKLVCILNCCKVINNLLLNASIASNENAPGADEFLPVLIYVTIKANPPQLHSNLLYIQRYRRESKLVGEAAYFFTNILSAESFISNIDAKSISLDEAEFEKNMESARARISG”, for which the “soluble on expression in E. coli” value is recorded as “soluble”.
On to “GSMPKPINVRVTTMDAELEFAIQPNTTGKQLFDQVVKTVGLREVWFFGLQYVDSKGYSTWLKLNKKVTQQDVKKENPLQFKFRAKFFPEDVSEELIQEITQRLFFLQVKEAILNDEIYCPPETAVLLASYAVQAKYGDYNKEIHKPGYLANDRLLPQRVLEQHKLTKEQWEERIQNWHEEHRGMLREDSMMEYLKIAQDLEMYGVNYFEIKNKKGTELWLGVDALGLNIYEHDDKLTPKIGFPWSEIRNISFNDKKFVIKPIDKKAPDFVFYAPRLRINKRILALCMGNHELYMRRRKPDTIEVQQMKAQARVDSSGRIVTD”, for which the “soluble on expression in E. coli” value is reported as “soluble”.
“GSPNSTAEPTVAARPQQIDALRTLIRLGSLHTPMVVRTAATLRLVDHILAGARTVKALAARTDTRPEALLRLIRHLVAIGLLEEDAPGEFVPTEVGELLADDHPAAQRAWHDLTQAVARADISFTRLPDAIRTGRPTYESIYGKPFYEDLAGRPDLRASFDSLLACDQDVAFDAPAAAYDWTNVRHVLDVGGGKGGFAAAIARRAPHVSATVLEMAGTVDTARSYLKDEGLSDRVDVVEGDFFEPLPRKADAIILSFVLLNWPDHDAVRILTRCAEALEPGGRILIHERDDLHENSFNEQFTELDLRMLVFLGGALRTREKWDGLAASAGLVVEEVRQLPSPTIPYDLSLLVLAPAATGA”: the “soluble on expression in E. coli” value is reported as “soluble”.
Turning to “GSRAQSSPAAPASLSAPEPASQARVLSSSETPARTLPFTTGLIYDSVMLKHQCSCGDNSRHPEHAGRIQSIWSRLQERGLRSQCECLRGRKASLEELQSVHSERHVLLYGTNPLSRLKLDNGKLAGLLAQRMFVMLPCGGVGVDTDTIWNELHSSNAARWAAGSVTDLAFKVASRELKNGFAVVRPPGHHADHSTAMGFCFFNSVAIACRQLQQQSKASKILIVDWDVHHGNGTQQTFYQDPSVLYISLHRHDDGNFFPGSGAVDEVGAGSGEGFNVNVAWAGGLDPPMGDPEYLAAFRIVVMPIAREFSPDLVLVSAGFDAAEGHPAPLGGYHVSAKCFGYMTQQLMNLAGGAVVLALEGGHDLTAICDASEACVAALLGNRVDPLSEEGWKQKPNLNAIRSLEAVIRVHSKYWGCMQRLAS”, the “soluble on expression in E. coli” value was “soluble”.
“GSRRASVGSHEVEKSGLLNMTKIAQGGRKLRKNWGPSWVVLTGNSLVFYREPPPTAPSSGWGPAGSRPESSVDLRGAALAHGRHLSSRRNVLHIRTIPGHEFLLQSDHETELRAWHRALRTVIERLVRW”: the “soluble on expression in E. coli” value was “soluble”.
“GSSGSSGGYFDAHALAMDYRSLGFRECLAEVARYLSIIEGLDASDPLRVRLVSHLNNYASQREASGPSSG”: the “soluble on expression in E. coli” value was “soluble”.
Turning to “GSSMKASSGDQGSPPCFLRFPRPVRVVSGAEAELKCVVLGEPPPVVVWEKGGQQLAASERLSFPADGAEHGLLLTAALPTDAGVYVCRARNAAGEAYAAAAVTVLEPPA”, the “soluble on expression in E. coli” value is recorded as “soluble”.
As for “GSSPQREPQRVSHEQFRAALQLVVDPGDPRSYLDNFIKIGEGSTGIVCIATVRSSGKLVAVKKMDLRKQQRRELLFNEVVIMRDYQHENVVEMYNSYLVGDELWVVMEFLEGGALTDIVTHTRMNEEQIAAVCLAVLQALSVLHAQGVIHRDIKSDSILLTHDGRVKLSDFGFCAQVSKEVPRRKSLVGTPYWMAPELISRLPYGPEVDIWSLGIMVIEMVDGEPPYFNEPPLKAMKMIRDNLPPRLKNLHKVSPSLKGFLDRLLVRDPAQRATAAELLKHPFLAKAGPPASIVPLMRQNRTR”, the “soluble on expression in E. coli” value is “soluble”.
“GSVRPVVGEIAANSIAAEAQIAPGTELKAVDGIETPDWDAVRLQMVDKIGDESTTITVAPFGSDQRRDVKLDLRHWAFEPDKEDPVSSLGIRPRGPQ”: the “soluble on expression in E. coli” value is on record as “soluble”.
With “GVDWQDANSLQYVVQSAETLVPDVKPVAQAESVNRVNTGGEGLGGELRDQEYAIILETLVECNGRRKEMAEKLGISPRTLRYKLAKMRDAGIDIPS”, the “soluble on expression in E. coli” value is given as “not soluble”.
For “GWNECNDKLRDISRSFWRGDQGYLKEFATRLMGSRDIYSAANWPYKLTVNYITYHDGFTLQDLVSYKHKHNEANGEENRDGHGDNRSENYGVEGETENIMIIATREKQKRNLIASLLFAFGIPHILTADVLSHSQDGNNNAYCQDNKTSWINWSETERKAHFKTWMAQMVANRHQYMVPFIRAFSGENRNNNRIFWRRTDGRLMEHDDWNRLSSVALHLGIGKDGQELVYLINQTNATARFKLPNERNQEWVTICDTNVRNLNPGHAEGEVLLSPTSMVILHYQPKPNSPQGEQLQS”, the “soluble on expression in E. coli” value is “not soluble”.
Take “GYQCQHNLNYWRFGDYLGIGCGSHGKLSFADGRIIRTTKVKHPRGYLAAYQNMVKPYLHTEQLVADEDRPFEFFMNRFRLMEACPKQDYVDTTGLPLSTIQDTIDWALEMGYLSETETHWQITEKGKLFLNDLLEAFMAEEDEE”: the “soluble on expression in E. coli” value is “not soluble”.
With “GYRALSFPDPLDSQPVQAIAFYPSTGSEHLSIIHGYRVEASEDAPIAMGRFPLLLLSHGNTGTPLALHDLATSLARQGFVVVAVVHPGDNDRDHSRLGSLSNLYGRPLQISEAISTALLDPVLAPYLNARQVGVIGYSAGGETALILAGAQPDLQRLRQYCLERPTDRDACKTQGELVADRDDLHAQADPRVGALMLMAPLSLMFGRHTLGDVHVPVLMYAGDDDQLLALDRNAEALARKLPQAPDYKLLAGAGHFVFMAPCSDEQREAAPLL”, the “soluble on expression in E. coli” value is listed as “not soluble”.
“GYTLWNDQIVKDEEVKIDKEDRGYQFGDGVYEVVKVYNGEMFTVNEHIDRLYASAEKIRITIPYTKDKFHQLLHELVEKNELNTGHIYFQVTRGTSPRAHQFPENTVKPVIIGYTKENPRPLENLEKGVKATFVEDIRWLRCDIKSLNLLGAVLAKQEAHEKGCYEAILHRNNTVTEGSSSNVFGIKDGILYTHPANNMIAKGITRDVVIACANEINMPVKEIPFTTHEALKMDELFVTSTTSEITPVIEIDGKLIRDGKVGEWTRKLQKQFETKIPKPLHI”: the “soluble on expression in E. coli” value is on record as “soluble”.
Turning to “HDYLMKGNLSRLVPAIERELREADERRRRRQAEEAMHAQFNQISTIFDSLNALVYVVDMNSYELLYLNKFGAQLFGEAWEGRTCHDVLHGGRSTPCDFCTNDKLIMDGKALPPYIWEYQNSISSRWYQCIDKAIRWTD”, the “soluble on expression in E. coli” value is listed as “not soluble”.
For the sequence “HEEHLMVPKGVEVYEINGPYFFGIATKFEEIMSELGDRPKVRIVRMRKVPFIDSTGIHNLTNLCEMSKKENIQIVLSGVNEKVHQILEKSGFNELLGKENICPNINVALEKAK”, the “soluble on expression in E. coli” value is on record as “not soluble”.
With “HETLTSPPLREGRYIMAVTGCGPVEGVKEDGAFAFRGIPYAKPPVDRLRWKPAELIDDINMCWNDTLQTHNSSVVCTQRLGNGTTVGDEDCLYLDVVTPHVRYNNPLPVVVLIGAESLAGPSPGILRPSARYSRSHDVIFVRPNFRLGVFGFLALDALTKEAHPPTSGNYALTDIIAVLNWIKLNIVHFGGDPQSVTLLGHRAGATLVTLLVNSQKVKGLYTRAWASSGSAILPGKPLSESGKQNEQLMATLECADIQCLREASSERLWAATPDTWLHFPVDLPQPQEANASGSRHEWLVLDGDVVFEHPSDTWKREQANDKPVLVMGATAHEAHTEKLRELHANWTREEVRAYLENSQIGALGLTDEVIEKYNASSYASLVSIISDIRSVCPLLTNARQQPSVPFYVVTQGEGPDQLATVDADVQAILGRYEPHTVEQRRFVSAMQQLFYYYVSHGTVQSFVQNRRVINVGQDAQPEEDYLPCNYWISKDIVPRYARVD”, the “soluble on expression in E. coli” value is reported as “soluble”.
Turning to “HGNQLTAYTLRLGDNCLVLSQRLGEWCGHAPELEIDLALANIGLDLLGQARNFLSYAAELAGEGDEDTLAFTRDERQFSNLLLVEQPNGNFADTIARQYFIDAWHVALFTRLMESRDPQLAAISAKAIKEARYHLRFSRGWLERLGNGTDVSGQKMQQAINKLWRFTAELFDADEIDIALSEEGIAVDPRTLRAAWEAEVFAGINEATLNVPQEQAYRTGGKKGLHTEHLGPMLAEMQYLQRVLPGQQW”, the “soluble on expression in E. coli” value is reported as “soluble”.
As to “HGSYIDITIDLKHYNGSVFDLRLSDYHPVKKVIDIAWQAQSVSMPPREGHWIRVVNKDKVFSGECKLSDCGITNGDRLEIL”, the “soluble on expression in E. coli” value is recorded as “soluble”.
As for “HHDITKVDTSGASEITARQDKLTLQGVDASHKLAEHDLVRMNKYKELITRVGQKHGLDPAIIAGIISRESRAGSALDHGWGDHGKGFGLMQVDKRYHKIVGAWDSEKHISQGTEILIEFIRRIQAKFPVWPKEHQLKGGISAYNAGDKNVRTYERMDVGTTGGDYSNDVVARSQWFKSQGY”, the “soluble on expression in E. coli” value is reported as “soluble”.
“HHHHHHDYDIPTTENLYFQGAITLLTLIKTAEHWARQDIRTIEDSKLRALLTLCAVMTRKFSKSQLSLLCETHLRREGLGQDQAEPVLEVYQRLHSDKGGSFEAALWQQWDRQSLIMFITAFLNIALQLPCESSAVVVSGLRTLVPQSDNEE”: the “soluble on expression in E. coli” value is listed as “soluble”.
For “HHHHHHMVRAIDEDCSQYEPIPGSQKAALGYNILTQEDAQSVYDASYYGGQCETVYNGEWRELRYDSTCERLYYGDDEKYFRKPYNFLKYHFEALADTGISSEFYDNANDLLSKVKKDKSDSFGVTIGIGPAGSPLLVGVGVSHSQDTSFLNELNKYNEKKFIFTRIFTKVQTAHFKMRKDDIMLDEGMLQSLMELPDQYNYGMYAKFINDYGTHYITSGSMGGIYEYILVIDKAKMESLGITSRDITTCFGGSLGIQYEDKINVGGGLSGDHCKKFGGGKTERARKAMAVEDIISRVRGGSSGWSGGLAQNRSTITYRSWGRSLKYNPVVIDFEMQPIHEVLRHTSLGPLEAKRQNLRRALDQYLM”, the “soluble on expression in E. coli” value is reported as “soluble”.
Regarding “HHHMFNAKYVAEATGNFITVMDALKLNYNAKDQLHPLLAELLISINRVTRDDFENRSKLIDWIVRINKLSIGDTLTETQIRELLFDLELAYKSFYALLD”, the “soluble on expression in E. coli” value is listed as “soluble”.
Turning to “HMDIRTITSSDYEMVTSVLNEWWGGRQLKEKLPRLFFEHFQDTSFITSEHNSMTGFLIGFQSQSDPETAYIHFSGVHPDFRKMQIGKQLYDVFIETVKQRGCTRVKCVTSPVNKVSIAYHTKLGFDIEKGTKTVNGISVFANYDGPGQDRVLFVKNI”, the “soluble on expression in E. coli” value is reported as “soluble”.
Regarding “HMLLTTSRKPSQRTRSFSQRLSRIMGWRYINRGKMSLRDVLIEARGPVAVVSERHGNPARITFLDERGGERGYILFNPSFEMKKPELADKAVRVSSCPPGSEGLCNLMGLEVDESSSRDAWSIRTDEEYAWVMELMDARGTPAGFKLLIRDFRVGE”, the “soluble on expression in E. coli” value was “soluble”.
